Source: the supplement of paper PMC9732359
± gives the uncertainty stated by the source.

Test: protein stability index of a GFP-peptide fusion (yeast GPS) (PSI 1-4); higher = more stable; sorted into four equal gates, so the index is relative within each strain
How it was run: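 Peptides tiling yeast proteins in 17-residue segments were fused downstream of GFP, with Cherry expressed from the same plasmid. As a pooled library in yeast, mid-log cultures grown in leucine-free medium were sorted into four equal gates by GFP/Cherry fluorescence ratio. Gate plasmids were PCR-amplified and Illumina-sequenced, and barcodes linked reads to strains. Each peptide received a protein stability index equal to the sum of each gate's read frequency times its gate number.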

EEKVLSTRLKKACKTAD [SRP68]
protein stability index (doa10∆): 3.18 ± 0.087
protein stability index (pdr5∆): 3.22 ± 0.077
protein stability index (san1∆): 3.56 ± 0.14
protein stability index (ubr1∆): 3.21 ± 0.075

VSKVQKRKVLELKKKRK [SRP72]
protein stability index (doa10∆): 2.78 ± 0.1
protein stability index (pdr5∆): 2.57 ± 0.13
protein stability index (san1∆): 2.24 ± 0.1
protein stability index (ubr1∆): 2.48 ± 0.054

KRPGKLSDYIPGPYPNE [CYT1]
protein stability index (doa10∆): 3.19 ± 0.059
protein stability index (pdr5∆): 3.22 ± 0.06
protein stability index (san1∆): 3.24 ± 0.041
protein stability index (ubr1∆): 3.16 ± 0.037

EDAIHIALLTLKESVEG [PRE8]
protein stability index (doa10∆): 2.94 ± 0.092
protein stability index (pdr5∆): 2.87 ± 0.085
protein stability index (san1∆): 2.94 ± 0.069
protein stability index (ubr1∆): 2.92 ± 0.076

EYIFEAHEIIKREEKAM [CDC53]
protein stability index (doa10∆): 1.77 ± 0.039
protein stability index (pdr5∆): 2.39 ± 0.088
protein stability index (san1∆): 2.54 ± 0.086
protein stability index (ubr1∆): 2.28 ± 0.043

RLTKQAFDWVLSNIEAQ [RPO21]
protein stability index (doa10∆): 3.2 ± 0.12
protein stability index (pdr5∆): 2.93 ± 0.12
protein stability index (san1∆): 3.19 ± 0.091
protein stability index (ubr1∆): 2.8 ± 0.088

PVGRELDPISLILIPGE [RPN13]
protein stability index (doa10∆): 2.65 ± 0.098
protein stability index (pdr5∆): 2.56 ± 0.05
protein stability index (san1∆): 3.13 ± 0.062
protein stability index (ubr1∆): 3.23 ± 0.098

IRDSGDRIDLRYSKRAG [RPO21]
protein stability index (doa10∆): 3.43 ± 0.18
protein stability index (pdr5∆): 3.34 ± 0.23
protein stability index (san1∆): 3.25 ± 0.12
protein stability index (ubr1∆): 3.27 ± 0.19

PKYAKQKDKSDTYKRFK [ISW2]
protein stability index (doa10∆): 3.12 ± 0.084
protein stability index (pdr5∆): 3.1 ± 0.1
protein stability index (san1∆): 3.13 ± 0.11
protein stability index (ubr1∆): 3.23 ± 0.079

FGAKPEEQKSSDTSKPA [YJL041W/NSP1]
protein stability index (doa10∆): 3.23 ± 0.083
protein stability index (pdr5∆): 2.91 ± 0.084
protein stability index (san1∆): 3.32 ± 0.088
protein stability index (ubr1∆): 3.11 ± 0.09

MVMFMHMAKGLYYGSYR [COB]
protein stability index (doa10∆): 1.18 ± 0.086
protein stability index (pdr5∆): 1.16 ± 0.13
protein stability index (san1∆): 1.75 ± 0.22
protein stability index (ubr1∆): 1.13 ± 0.072

KSMSILNSFVNDIFERI [HTB1]
protein stability index (doa10∆): 2.73 ± 0.1
protein stability index (pdr5∆): 3.18 ± 0.13
protein stability index (san1∆): 2.47 ± 0.2
protein stability index (ubr1∆): 2.94 ± 0.062

QALIHGLNRHYYSLNID [RPN11]
protein stability index (doa10∆): 1.98 ± 0.15
protein stability index (pdr5∆): 2.4 ± 0.1
protein stability index (san1∆): 2.44 ± 0.068
protein stability index (ubr1∆): 2.42 ± 0.068

DVKISNDFFDNGDNLYG [RPN4]
protein stability index (doa10∆): 2.39 ± 0.086
protein stability index (pdr5∆): 2.93 ± 0.063
protein stability index (san1∆): 2.67 ± 0.12
protein stability index (ubr1∆): 1.69 ± 0.057

QQTGLVDAITRCYQPFE [SNU114]
protein stability index (doa10∆): 2.53 ± 0.069
protein stability index (pdr5∆): 2.76 ± 0.056
protein stability index (san1∆): 3.04 ± 0.041
protein stability index (ubr1∆): 2.98 ± 0.05

DKKVTLITSEMFDAFVS [SIN4]
protein stability index (doa10∆): 1.56 ± 0.059
protein stability index (pdr5∆): 1.46 ± 0.049
protein stability index (san1∆): 1.36 ± 0.098
protein stability index (ubr1∆): 1.28 ± 0.042

RAGQRGYHSRTSINHKI [RPL3]
protein stability index (doa10∆): 2.85 ± 0.13
protein stability index (pdr5∆): 3.23 ± 0.14
protein stability index (san1∆): 3 ± 0.096
protein stability index (ubr1∆): 3.5 ± 0.12

NKNQLLKRNRIRNARSI [POP1]
protein stability index (doa10∆): 2.93 ± 0.071
protein stability index (pdr5∆): 3.1 ± 0.071
protein stability index (san1∆): 2.84 ± 0.059
protein stability index (ubr1∆): 3 ± 0.055

EFESELKNVEETQEIKE [ESC2]
protein stability index (doa10∆): 3.54 ± 0.25
protein stability index (pdr5∆): 3.46 ± 0.2
protein stability index (san1∆): 3.25 ± 0.18
protein stability index (ubr1∆): 3.29 ± 0.15

VRAEELNISGEFFRNKL [RPL16A]
protein stability index (doa10∆): 3.67 ± 0.21
protein stability index (pdr5∆): 3.17 ± 0.23
protein stability index (san1∆): 3.07 ± 0.18
protein stability index (ubr1∆): 3.36 ± 0.2

AFGGLNFGGGNNTTPSS [YJL041W/NSP1]
protein stability index (doa10∆): 1.32 ± 0.061
protein stability index (pdr5∆): 1.29 ± 0.064
protein stability index (san1∆): 1.46 ± 0.087
protein stability index (ubr1∆): 1.21 ± 0.13

DIAGQRDDALVVETITS [RRP42]
protein stability index (doa10∆): 3.1 ± 0.11
protein stability index (pdr5∆): 3.28 ± 0.094
protein stability index (san1∆): 2.27 ± 0.27
protein stability index (ubr1∆): 2.56 ± 0.092

KEENDEGLSAQIAFDLV [RPN2]
protein stability index (doa10∆): 3.4 ± 0.14
protein stability index (pdr5∆): 3.56 ± 0.098
protein stability index (san1∆): 3.44 ± 0.076
protein stability index (ubr1∆): 3.33 ± 0.055

EIPEGVTVSIKSRIVKV [RPL9B]
protein stability index (doa10∆): 1.29 ± 0.055
protein stability index (pdr5∆): 1.45 ± 0.075
protein stability index (san1∆): 1.44 ± 0.27
protein stability index (ubr1∆): 1.35 ± 0.11

GNSKDDLLDMIQFGAKN [ISW2]
protein stability index (doa10∆): 3.14 ± 0.2
protein stability index (pdr5∆): 2.89 ± 0.16
protein stability index (san1∆): 2.95 ± 0.11
protein stability index (ubr1∆): 2.92 ± 0.093

SSLFLDGLEKAAFNGVT [FAS2]
protein stability index (doa10∆): 2.3 ± 0.06
protein stability index (pdr5∆): 2.12 ± 0.062
protein stability index (san1∆): 2.02 ± 0.092
protein stability index (ubr1∆): 2.88 ± 0.063

GKKSSSSTKDYLTPPHE [RET1]
protein stability index (doa10∆): 3.72 ± 0.27
protein stability index (san1∆): 3.52 ± 0.22
protein stability index (ubr1∆): 2.85 ± 0.18

EYLKRVSVPVSGQKTNR [SIR3]
protein stability index (doa10∆): 2.54 ± 0.1
protein stability index (pdr5∆): 2.52 ± 0.087
protein stability index (san1∆): 3.06 ± 0.13
protein stability index (ubr1∆): 2.83 ± 0.16

AVSTIASISLAIGYPTL [RPP0]
protein stability index (doa10∆): 1.92 ± 0.055
protein stability index (pdr5∆): 2.12 ± 0.056
protein stability index (san1∆): 1.53 ± 0.1
protein stability index (ubr1∆): 2.15 ± 0.049

EIILKLCRNPLTSGLLY [YJL039C/NUP192]
protein stability index (doa10∆): 2.21 ± 0.069
protein stability index (pdr5∆): 1.84 ± 0.07
protein stability index (san1∆): 1.22 ± 0.16
protein stability index (ubr1∆): 1.17 ± 0.046

QIEKKKICRGRMNTIIT [SIR4]
protein stability index (doa10∆): 3.52 ± 0.17
protein stability index (pdr5∆): 3.43 ± 0.14
protein stability index (san1∆): 3.52 ± 0.24
protein stability index (ubr1∆): 2.63 ± 0.27

ANVELTPSNIRSLCEVL [RPC34]
protein stability index (doa10∆): 1.32 ± 0.053
protein stability index (pdr5∆): 1.68 ± 0.064
protein stability index (san1∆): 1.69 ± 0.078
protein stability index (ubr1∆): 2.02 ± 0.07

KKVLEIDFFKTDDSFED [BRN1]
protein stability index (doa10∆): 2.09 ± 0.041
protein stability index (pdr5∆): 2.08 ± 0.055
protein stability index (san1∆): 2.46 ± 0.058
protein stability index (ubr1∆): 2.18 ± 0.042

LKKANIIYHTTFSWLNA [YLR018C/POM34]
protein stability index (doa10∆): 2.46 ± 0.043
protein stability index (pdr5∆): 2.45 ± 0.044
protein stability index (san1∆): 2.41 ± 0.043
protein stability index (ubr1∆): 2.54 ± 0.036

ETIKMKELDQELIIDPL [BRN1]
protein stability index (doa10∆): 2.98 ± 0.12
protein stability index (pdr5∆): 3.04 ± 0.15
protein stability index (san1∆): 2.6 ± 0.26
protein stability index (ubr1∆): 3.01 ± 0.064

ANNYSSNIGNNSINNNN [YDL088C/ASM4]
protein stability index (doa10∆): 2.51 ± 0.071
protein stability index (pdr5∆): 3.19 ± 0.078
protein stability index (san1∆): 2.94 ± 0.085
protein stability index (ubr1∆): 2.76 ± 0.054

VVWYQRLTMGNVFTPEI [RRI2]
protein stability index (doa10∆): 2.03 ± 0.074
protein stability index (pdr5∆): 2.3 ± 0.058
protein stability index (san1∆): 2.27 ± 0.12
protein stability index (ubr1∆): 2.45 ± 0.073

NRTLYELADLPKLKRIG [GRR1]
protein stability index (doa10∆): 2.88 ± 0.049
protein stability index (pdr5∆): 2.87 ± 0.037
protein stability index (san1∆): 2.8 ± 0.042
protein stability index (ubr1∆): 3.02 ± 0.042

KLEEESKRGNDKKHFNN [RPC53]
protein stability index (doa10∆): 3.34 ± 0.098
protein stability index (pdr5∆): 3.15 ± 0.094
protein stability index (san1∆): 3.17 ± 0.094
protein stability index (ubr1∆): 3.28 ± 0.08

AVFKIVLQPLLPRELPK [SNU114]
protein stability index (doa10∆): 2.05 ± 0.083
protein stability index (pdr5∆): 1.76 ± 0.091
protein stability index (san1∆): 2.05 ± 0.095
protein stability index (ubr1∆): 2.18 ± 0.074

DTKPFLNKDSTNEFVGS [NUT1]
protein stability index (doa10∆): 3.09 ± 0.064
protein stability index (pdr5∆): 2.79 ± 0.054
protein stability index (san1∆): 2.44 ± 0.062
protein stability index (ubr1∆): 3.04 ± 0.039

VDLWSVGCIFAELIGLQ [SSN3]
protein stability index (doa10∆): 3.18 ± 0.097
protein stability index (pdr5∆): 3.16 ± 0.13
protein stability index (san1∆): 3.35 ± 0.036
protein stability index (ubr1∆): 3.17 ± 0.12

TSVENEGPVANLKDYEL [REC8]
protein stability index (doa10∆): 3.38 ± 0.11
protein stability index (pdr5∆): 3.41 ± 0.12
protein stability index (san1∆): 3.03 ± 0.13
protein stability index (ubr1∆): 3.16 ± 0.076

PLSNEVFEISENNSDSN [SWI1]
protein stability index (doa10∆): 3 ± 0.063
protein stability index (pdr5∆): 3.04 ± 0.068
protein stability index (san1∆): 2.84 ± 0.084
protein stability index (ubr1∆): 2.98 ± 0.058

SHILNSHSLALNEITNS [DSN1]
protein stability index (doa10∆): 2.14 ± 0.033
protein stability index (pdr5∆): 2.41 ± 0.035
protein stability index (san1∆): 2.28 ± 0.037
protein stability index (ubr1∆): 2.36 ± 0.03

VQEMALGGPITKESQPT [FAS2]
protein stability index (doa10∆): 2.78 ± 0.099
protein stability index (pdr5∆): 2.72 ± 0.078
protein stability index (san1∆): 2.87 ± 0.065
protein stability index (ubr1∆): 3.01 ± 0.05

IQELEDQRDELLEQKKS [ITC1]
protein stability index (doa10∆): 3.21 ± 0.067
protein stability index (pdr5∆): 3.11 ± 0.055
protein stability index (san1∆): 3.24 ± 0.045
protein stability index (ubr1∆): 3.31 ± 0.061

HRLKLCKSLISENEDTK [CSE2]
protein stability index (doa10∆): 2.91 ± 0.17
protein stability index (pdr5∆): 3.24 ± 0.27
protein stability index (san1∆): 2.42 ± 0.2

IGTKRFDSEKSGDREVQ [RPT5]
protein stability index (doa10∆): 3.15 ± 0.19
protein stability index (pdr5∆): 3.51 ± 0.2
protein stability index (san1∆): 2.8 ± 0.26
protein stability index (ubr1∆): 3.41 ± 0.12

FSQEALQYVVERVGKRT [FAS1]
protein stability index (doa10∆): 1.07 ± 0.091
protein stability index (pdr5∆): 1.24 ± 0.11
protein stability index (ubr1∆): 1.17 ± 0.09

GLEVGPVVQVGIFIKIL [IRR1]
protein stability index (doa10∆): 2.38 ± 0.068
protein stability index (pdr5∆): 2.25 ± 0.056
protein stability index (san1∆): 2.11 ± 0.15
protein stability index (ubr1∆): 2.47 ± 0.059

LVLLELVSSGDRFIELI [YML103C/NUP188]
protein stability index (doa10∆): 2.56 ± 0.1
protein stability index (pdr5∆): 2.08 ± 0.07
protein stability index (san1∆): 2.21 ± 0.068
protein stability index (ubr1∆): 2.3 ± 0.088
